Test results: PMC9896810
Positions count from the first letter of the chain named. Names may count otherwise. Blank lines part the entries; values can stand above or below the binder they belong to.

Columns and labels:
GST-CrkL-SH3N [1] = experiment: pull-down; details: chain shown with the change; PD with GST-CrkL-SH3N, C3G detected by western blot (WB:C3G); parent: 1.0
GST-CrkL-SH3N [2] = experiment: pull-down; details: chain shown with the change, PD with GST-CrkL-SH3N, C3G detected by western blot (WB:C3G), parent: 1.0
C3G-AAPA (human), Q13905 [3] = experiment: ITC; single-PRM mutants of C3G in the cell titrated with full-length CrkL or CrkL-SH3N; 25 °C; 1:1 model in SEDPHAT; N is the competent fraction of C3G
C3G-AAPA (human), Q13905 [4] = molecular target: C3G-AAPA (human), Q13905
[5] = molecular target: Src-phosphorylated C3G-AAAP (pC3G-AAAP) (human), Q13905
[6] = molecular target: Src-phosphorylated C3G-AAPA (pC3G-AAPA) (human), Q13905
[7] = molecular target: Src-phosphorylated C3G-AAPP (pC3G-AAPP) (human), Q13905
C3G-AAAP (human), Q13905 = experiment: ITC; single-PRM mutants of C3G in the cell titrated with full-length CrkL or CrkL-SH3N; 25 °C; 1:1 model in SEDPHAT; N is the competent fraction of C3G

ratio to parent (GST-CrkL-SH3N [1]): 0.3 | ratio to parent (GST-CrkL-SH3N [2]; C3G-AAAP phosphorylated by Src (phospho AAAP)): 0.4 | ratio to parent (GST-CrkL-SH3N [2]): 0.4
B1: C3G (full-length, residues 4-1077), Q13905-1 P283A; P284A; L286A; P287A; K289A; P453A; P454A; L456A; P457A; K459A; P540A; P541A; L543A; P544A; K546A (protein)
chain: DSQRSHLSSFTMKLMDKFHSPKIKRTPSKKGKPAEVSVKIPEKPVNKEATDRFLPEGYPLPLDLEQQAVEFMSTSAVASRSQRQKNLSWLEEKEKEVVSALRYFKTIVDKMAIDKKVLEMLPGSASKVLEAILPLVQNDPRIQHSSALSSCYSRVYQSLANLIRWSDQVMLEGVNSEDKEMVTTVKGVIKAVLDGVKELVRLTIEKQGRPSPTSPVKPSSPASKPDGPAELPLTDREVEILNKTTGMSQSTELLPDATDEEVAPPKPPLPGIRVVDNSPAAAAAPAKRQSAPSPTRVAVVAPMSRATSGSSLPVGINRQDFDVDCYAQRRLSGGSHSYGGESPRLSPCSSIGKLSKSDEQLSSLDRDSGQCSRNTSCETLDHYDPDYEFLQQDLSNADQIPQQTAWNLSPLPESLGESGSPFLGPPFQLPLGGHPQPDGPLAPGQQTDTAAAAAEAKRRSAASQTADGSGCRVSYERHPSQYDNISGEDLQSTAPIPSVPYAPFAAILPFQHGGSSAPVEFVGDFTAPESTGDPEKAAPAAEAKNKHMLAYMQLLEDYSEPQPSMFYQTPQNEHIYQQKNKLLMEVYGFSDSFSGVDSVQELAPPPALPPKQRQLEPPAGKDGHPRDPSAVSGVPGKDSRDGSERAPKSPDALESAQSEEEVDELSLIDHNEIMSRLTLKQEGDDGPDVRGGSGDILLVHATETDRKDLVLYCEAFLTTYRTFISPEELIKKLQYRYEKFSPFADTFKKRVSKNTFFVLVRVVDELCLVELTEEILKLLMELVFRLVCNGELSLARVLRKNILDKVDQKKLLRCATSSQPLAARGVAARPGTLHDFHSHEIAEQLTLLDAELFYKIEIPEVLLWAKEQNEEKSPNLTQFTEHFNNMSYWVRSIIMLQEKAQDRERLLLKFIKIMKHLRKLNNFNSYLAILSALDSAPIRRLEWQKQTSEGLAEYCTLIDSSSSFRAYRAALSEVEPPCIPYLGLILQDLTFVHLGNPDYIDGKVNFSKRWQQFNILDSMRCFQQAHYDMRRNDDIINFFNDFSDHLAEEALWELSLKIKPRNITRRKTDREEKT

ratio to parent (GST-CrkL-SH3N [2]; C3G-AAPA phosphorylated by Src (phospho AAPA)): 0.3
B2: C3G (full-length, residues 4-1077), Q13905-1 P283A; P284A; L286A; P287A; K289A; P453A; P454A; L456A; P457A; K459A; P608A; P609A; L611A; P612A; K614A (protein)
chain: B1 chain with A537P, A538P, A540L, A541P, A543K, P605A, P606A, L608A, P609A, K611A

ratio to parent (GST-CrkL-SH3N [2]): 0.4
B3: C3G (full-length, residues 4-1077), Q13905-1 P283A; P284A; L286A; P287A; K289A; P453A; P454A; L456A; P457A; K459A; P540A; P541A; L543A; P544A; K546A; Y554H (protein)
chain: B1 chain with Y551H

ratio to parent (GST-CrkL-SH3N [1]): 0.4
B4: C3G (full-length, residues 4-1077), Q13905-1 P283A; P284A; L286A; P287A; K289A; P540A; P541A; L543A; P544A; K546A; P608A; P609A; L611A; P612A; K614A (protein)
chain: B1 chain with A450P, A451P, A453L, A454P, A456K, P605A, P606A, L608A, P609A, K611A

Kd (C3G-AAPA (human), Q13905 [3]): 3.5 µM | stoichiometry N (C3G-AAPA (human), Q13905 [3]): 0.2
B5: CrkL-SH3N (residues 125-182), P46109 125-182 (domain or fragment)
chain: LEYVRTLYDFPGNDAEDLPFKKGEILVIIEKPEEQWWSARNKDGRVGMIPVPYVEKLV

AC50 of the dose-response activation of the GEF activity of C3G (1 µM) on Rap1b:mant-dGDP (C3G-AAPA (human), Q13905 [4]): 28.1 µM | kmax of the dose-response activation of the GEF activity of C3G (1 µM) on Rap1b:mant-dGDP (C3G-AAPA (human), Q13905 [4]): 9100 M⁻¹ s⁻¹ | AC50 of the dose-response activation of the GEF activity of C3G (1 µM) on Rap1b:mant-dGDP (C3G-AAPP (human), Q13905): 23.7 µM | kmax of the dose-response activation of the GEF activity of C3G (1 µM) on Rap1b:mant-dGDP (C3G-AAPP (human), Q13905): 13600 M⁻¹ s⁻¹ | AC50 of the dose-response activation of the GEF activity of pC3G (0.2 µM) on Rap1b:mant-dGDP; the text says that pC3G-AAAP was not stimulated by CrkL [5]: 0.6 µM | kmax of the dose-response activation of the GEF activity of pC3G (0.2 µM) on Rap1b:mant-dGDP; the text says that pC3G-AAAP was not stimulated by CrkL [5]: 0.0045 s^-1 µM^-1 | AC50 of the dose-response activation of the GEF activity of pC3G (0.2 µM) on Rap1b:mant-dGDP [6]: 1.3 µM | kmax of the dose-response activation of the GEF activity of pC3G (0.2 µM) on Rap1b:mant-dGDP [6]: 0.0269 s^-1 µM^-1 | AC50 of the dose-response activation of the GEF activity of pC3G (0.2 µM) on Rap1b:mant-dGDP [7]: 2.2 µM | kmax of the dose-response activation of the GEF activity of pC3G (0.2 µM) on Rap1b:mant-dGDP [7]: 0.0357 s^-1 µM^-1 | Kd (C3G-AAAP (human), Q13905): 2 µM | stoichiometry N (C3G-AAAP (human), Q13905): 0.55 | Kd (C3G-AAPA (human), Q13905 [3]): 2 µM | stoichiometry N (C3G-AAPA (human), Q13905 [3]): 0.13
B6: CrkL, full-length (human), P46109 1-303 (natural protein)
chain: MSSARFDSSDRSAWYMGPVSRQEAQTRLQGQRHGMFLVRDSSTCPGDYVLSVSENSRVSHYIINSLPNRRFKIGDQEFDHLPALLEFYKIHYLDTTTLIEPAPRYPSPPMGSVSAPNLPTAEDNLEYVRTLYDFPGNDAEDLPFKKGEILVIIEKPEEQWWSARNKDGRVGMIPVPYVEKLVRSSPHGKHGNRNSNSYGIPEPAHAYAQPQTTTPLPAVSGSPGAAITPLPSTQNGPVFAKAIQKRVPCAYDKTALALEVGDIVKVTRMNINGQWEGEVNGRKGLFPFTHVKIFDPQNPDENE
